These results are taken from paper PMC314469, “Protein Interaction Networks by Proteome Peptide Scanning” (PLoS Biology, 2004).

Test [1] concerns the target endophilin SH3 (SH3G2_HUMAN), Q99962. In words: SPOT array.
In test [2] the target is T1, amphyphisin SH3 (AMPH_HUMAN), P49418.
T1 chain: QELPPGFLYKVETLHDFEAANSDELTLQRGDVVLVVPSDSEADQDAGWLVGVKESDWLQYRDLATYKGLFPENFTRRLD
The test is described as follows: SPOT array.

For the molecule SRNVLRRPFQAQSG [Q12933 37-50], the normalised SPOT signal, Boehringer light units (BLU); mean over the file's lines of this peptide came to 112 in test [1] and 31.6 in test [2].

On to YYQIIKRPMDLSII [Q9BQQ4 1075-1088], for which the normalised SPOT signal, Boehringer light units (BLU); mean over the file's lines of this peptide was 85.7 in test [1] and 78.4 in test [2].

Regarding YTSKIFRPPRASHS [Q9Y397 160-173], the normalised SPOT signal, Boehringer light units (BLU); mean over the file's lines of this peptide came to 325 in test [1] and 1790 in test [2].

In the case of SSKEFNRPDKLKAH [Q9BYN7 579-592], the normalised SPOT signal, Boehringer light units (BLU); mean over the file's lines of this peptide in test [1] is 120; in test [2], 132.

SWGGPWRPPPPGFW [Q8TC90 86-100]: the values for the normalised SPOT signal, Boehringer light units (BLU); mean over the file's lines of this peptide in test [1] and in test [2] were 1290 and 43.7, respectively.

With SRLTLLRPEKDGTA [Q9H7S7 328-341], the results for the normalised SPOT signal, Boehringer light units (BLU); mean over the file's lines of this peptide in test [1] and in test [2] were 112 and 242, respectively.

Turning to YRRRFSRPSRARDI [Q03188 13-26], the normalised SPOT signal, Boehringer light units (BLU); mean over the file's lines of this peptide in test [1] was 85.1; in test [2] it was 469.

On to ASLPPPRPQRPAET [Q9UFB1 199-212], for which the normalised SPOT signal, Boehringer light units (BLU); mean over the file's lines of this peptide in test [1] worked out at 81.6; in test [2], 210.

Turning to YPNKIKRPSLEDVT [Q13495 6-19], the normalised SPOT signal, Boehringer light units (BLU); mean over the file's lines of this peptide in test [1] was 94.9; in test [2] it was 24.9.

In the case of DANRLRRPGGSYPA [Q14767 49-62], the values for the normalised SPOT signal, Boehringer light units (BLU); mean over the file's lines of this peptide in test [1] and in test [2] were 59.6 and 24.8, respectively.

Take DAYSFKRPDRSKMN [P13611 342-355]: the normalised SPOT signal, Boehringer light units (BLU); mean over the file's lines of this peptide is 45.4 in test [1] and 543 in test [2].

As to STPRPARPPSPTEQ [Q96ML3 75-89], the results for the normalised SPOT signal, Boehringer light units (BLU); mean over the file's lines of this peptide in test [1] and in test [2] were 9450 and 324, respectively.

For the molecule YVDVIKRPLVKNPV [Q9P2Q0 703-716], the results for the normalised SPOT signal, Boehringer light units (BLU); mean over the file's lines of this peptide in test [1] and in test [2] were 29.7 and 26.4, respectively.

Regarding YTVPPARPPPPLTK [O43308 48-62], the figures for the normalised SPOT signal, Boehringer light units (BLU); mean over the file's lines of this peptide in test [1] and in test [2] were 9170 and 211, respectively.

Consider YRHGISRPLRPLSS [Q9UBX1 412-425], for which the normalised SPOT signal, Boehringer light units (BLU); mean over the file's lines of this peptide came out at 867 in test [1] and 1500 in test [2].

Consider DADPLKRPTFKQIV [P10721 908-921], for which the normalised SPOT signal, Boehringer light units (BLU); mean over the file's lines of this peptide was determined as 19.8 in test [1] and 39.9 in test [2].

Take YSLLFRRPPPSPSP [Q9NZY4 11-24]: the normalised SPOT signal, Boehringer light units (BLU); mean over the file's lines of this peptide turned out to be 175 in test [1] and 204 in test [2].

For YQRLPRRPGEPREV [Q9UHC9 721-734], the results for the normalised SPOT signal, Boehringer light units (BLU); mean over the file's lines of this peptide in test [1] and in test [2] were 143 and 116, respectively.

With SQKAFKRPSDLRQH [Q9P2F9 337-350], the normalised SPOT signal, Boehringer light units (BLU); mean over the file's lines of this peptide in test [1] worked out at 19; in test [2], 61.1.

For SVGRPTRPSRGPWR [Q9HBQ8 81-94], the normalised SPOT signal, Boehringer light units (BLU); mean over the file's lines of this peptide in test [1] came to 5870; in test [2] it was 9540.

In the case of DSSKLRRPLKRNRI [Q9NVG6 7-20], the normalised SPOT signal, Boehringer light units (BLU); mean over the file's lines of this peptide in test [1] is 167; in test [2] it was 111.

Take YQGGPPRPPMGMRP [O43670 455-469]: the results for the normalised SPOT signal, Boehringer light units (BLU); mean over the file's lines of this peptide in test [1] and in test [2] were 614 and 87.9, respectively.

On to YPQDLPRPLRSREF [O43734 232-245], for which the results for the normalised SPOT signal, Boehringer light units (BLU); mean over the file's lines of this peptide in test [1] and in test [2] were 95.9 and 154, respectively.

For YRLPPTRPPASVSP [Q96LR7 16-30], the normalised SPOT signal, Boehringer light units (BLU); mean over the file's lines of this peptide was determined as 1510 in test [1] and 150 in test [2].

Take SSGVPGRPPGLEEE [P49810 64-78]: the normalised SPOT signal, Boehringer light units (BLU); mean over the file's lines of this peptide in test [1] was found to be 57.8; in test [2], 50.9.

For the molecule DAQEIIRPRRSKYF [Q9HCG2 115-128], the normalised SPOT signal, Boehringer light units (BLU); mean over the file's lines of this peptide was determined as 165 in test [1] and 723 in test [2].

As for YRQQPKRPQKHIQK [Q9NPG4 759-772], the figures for the normalised SPOT signal, Boehringer light units (BLU); mean over the file's lines of this peptide in test [1] and in test [2] were 183 and 103, respectively.

As for YQEYLKRPPESPPI [Q9BTL3 26-39], the results for the normalised SPOT signal, Boehringer light units (BLU); mean over the file's lines of this peptide in test [1] and in test [2] were 42.7 and 34.1, respectively.

With ASLPPPRPQRPVTK [Q9NQE0 197-210], the normalised SPOT signal, Boehringer light units (BLU); mean over the file's lines of this peptide was found to be 5900 in test [1] and 9900 in test [2].

On to STQGLRRPFGVAVM [Q92608 327-340], for which the values for the normalised SPOT signal, Boehringer light units (BLU); mean over the file's lines of this peptide in test [1] and in test [2] were 27.2 and 8.9, respectively.

As to YSSSLERPRKLRAV [O75042 916-929], the normalised SPOT signal, Boehringer light units (BLU); mean over the file's lines of this peptide in test [1] is 137; in test [2], 78.3.

YYLLPERPPYLDKY [Q9UD05 393-407]: the normalised SPOT signal, Boehringer light units (BLU); mean over the file's lines of this peptide in test [1] was determined as 108; in test [2], 57.4.

Regarding SRLTLLRPEKDGAA [Q9H7S7 16-29], the results for the normalised SPOT signal, Boehringer light units (BLU); mean over the file's lines of this peptide in test [1] and in test [2] were 71.4 and 297, respectively.

Consider YQHHPKRPSRQIHK [Q9HCL0 744-757], for which the values for the normalised SPOT signal, Boehringer light units (BLU); mean over the file's lines of this peptide in test [1] and in test [2] were 432 and 3940, respectively.

As for SQPGPAKPPAHRPS [Q9NPM2 248-262], the normalised SPOT signal, Boehringer light units (BLU); mean over the file's lines of this peptide in test [1] was 176; in test [2] it was 39.8.

With SRLTLLRPKKDGAA [Q9H7S7 172-185], the results for the normalised SPOT signal, Boehringer light units (BLU); mean over the file's lines of this peptide in test [1] and in test [2] were 159 and 199, respectively.

Regarding SVRGPLRPPVRSPA [Q96H54 9-23], the normalised SPOT signal, Boehringer light units (BLU); mean over the file's lines of this peptide was 5540 in test [1] and 5070 in test [2].

For the molecule YPARPRRPASTAGS [Q9BTV6 12-25], the normalised SPOT signal, Boehringer light units (BLU); mean over the file's lines of this peptide stood at 2010 in test [1] and 4030 in test [2].
